Assays:
Assay in all cases: cell_activity
[1] = system: LDLRE2.1 (LDLR2.1) TALEN pair (synthetic construct); settings: mRNA, pig fibroblasts, 30 C; plasmid 14.4-21.5
[2] = system: ACAN12 TALEN pair (+231) (synthetic construct); settings: +231 scaffold in fibroblasts; indels confirmed in bovine embryos (Table 2)
[3] = system: ACAN12 TALEN pair (+63) (synthetic construct); settings: SURVEYOR, bovine fibroblasts; 29 in Table 1
[4] = system: DMDE6 TALEN pair (synthetic construct); settings: pig fibroblasts
[5] = system: DMDE7.1 TALEN pair (synthetic construct); settings: SURVEYOR, pig fibroblasts; 27 in Table 1
[6] = system: GHRHR2.3 TALEN pair (synthetic construct); settings: mRNA, female pig fibroblasts; male 32.5; puro-free plasmid G-418 29
[7] = system: LDLRE4.2 TALEN pair (synthetic construct); settings: male pig fibroblasts; female 19
[8] = system: p65 (p6511.1) TALEN pair (synthetic construct); settings: 10 ng/ul mRNA each, porcine zygotes

CTCCTACAAGTGGATTGTGATGGGAACACCGAGTGCAAGGACGGGTCCG (double strand) [porcine LDLR exon 2 target]
activity (% modified (day 3)) [1]: 34

bovine ACAN12 target
activity (% chromosomes cleaved) [2]: < 1
activity (% chromosomes cleaved) [3]: 25

porcine DMD exon 6 target
activity (% modified (day 3)) [4]: 25

porcine DMD exon 7 target
activity (% chromosomes cleaved) [5]: 38

porcine GHRHR target
activity (% modified (day 3)) [6]: 35

porcine LDLR exon 4 target
activity (% modified (day 3)) [7]: 20

porcine RELA (p65) target
activity (% embryos with indels (16/56)) [8]: 29

— patent publication US20130117870
